Experimental findings from doi:10.1101/477745, “The (p)ppGpp-binding GTPase Era promotes rRNA processing and cold shock survival in Staphylococcus aureus” (bioRxiv, 2019) are described below.

One test deals with T1, GST-CshA (S. aureus, UniProt Q2FF45 1-506).
T1 construct: DEAD-box RNA helicase CshA, Staphylococcus aureus; also called GST-tagged CshA; not shown: GST, N-terminal, kept
The test can be described thus: pull-down; 1 uM GST or GST fusion coupled to glutathione beads; incubated with His-tagged protein (printed 1 pM) in 25 mM Tris pH 7.5, 150 mM NaCl, 5 mM MgCl2, 0.5% Triton X-100 at 4°C overnight; eluted with glutathione; blot with anti-His-HRP. The conditions noted are these: both partners purified.

The target in test [1] is T2, Era fused to SB (small bit of luciferase) (S. aureus, UniProt Q2FGF6 1-299).
T2 construct: GTPase Era, Staphylococcus aureus; For the Era-Era pair the second copy of Era was fused to the large bit (LB); also called EraSB; full-length Era; source: S. aureus LAC*, expressed from pAP118 with Atet, in cells
T2 sequence (looked up): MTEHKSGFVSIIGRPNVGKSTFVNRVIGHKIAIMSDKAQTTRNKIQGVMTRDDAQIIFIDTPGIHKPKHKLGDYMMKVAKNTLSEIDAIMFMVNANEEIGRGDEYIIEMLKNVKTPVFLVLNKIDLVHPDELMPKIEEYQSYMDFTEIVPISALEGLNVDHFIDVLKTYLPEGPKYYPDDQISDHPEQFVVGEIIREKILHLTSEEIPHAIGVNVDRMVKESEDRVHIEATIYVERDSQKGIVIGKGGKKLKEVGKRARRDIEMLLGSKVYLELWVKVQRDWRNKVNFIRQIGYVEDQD
The experiment in a line: split reporter (BiFC, NanoBiT); split luciferase (SB and LB fusions from pAP118) in S. aureus LAC*; 100 ng/ml Atet for 90 min, normalised to OD600 0.1, Nano-Glo; luminescence relative to a control with one fusion only. To be noted: partners not purified.

B1: His-tagged Era (natural protein, S. aureus, UniProt Q2FGF6 1-299, looked up)
chain: T2 sequence (looked up)
notes: GTPase Era, Staphylococcus aureus; also called His-Era; recombinant Era
As to B1, the binding result with GST-CshA is “binds”.

B2: full-length CshA fused to LB (large bit of luciferase) (natural protein, S. aureus, UniProt Q2FF45 1-506, looked up)
chain: MQNFKELGISDNTVQSLESMGFKEPTPIQKDSIPYALQGIDILGQAQTGTGKTGAFGIPLIEKVVGKQGVQSLILAPTRELAMQVAEQLREFSRGQGVQVVTVFGGMPIERQIKALKKGPQIVVGTPGRVIDHLNRRTLKTDGIHTLILDEADEMMNMGFIDDMRFIMDKIPAVQRQTMLFSATMPKAIQALVQQFMKSPKIIKTMNNEMSDPQIEEFYTIVKELEKFDTFTNFLDVHQPELAIVFGRTKRRVDELTSALISKGYKAEGLHGDITQAKRLEVLKKFKNDQINILVATDVAARGLDISGVSHVYNFDIPQDTESYTHRIGRTGRAGKEGIAVTFVNPIEMDYIRQIEDANGRKMSALRPPHRKEVLQAREDDIKEKVENWMSKESESRLKRISTELLNEYNDVDLVAALLQELVEANDEVEVQLTFEKPLSRKGRNGKPSGSRNRNSKRGNPKFDSKSKRSKGYSSKKKSTKKFDRKEKSSGGSRPMKGRTFADHQK
notes: DEAD-box RNA helicase CshA, Staphylococcus aureus, 506 residues by the printed domain limits; also called CshALB; source: S. aureus LAC*, expressed from pAP118 with Atet, in cells
For B2, the “fold increase in luciferase activity” value in test [1] was 4 fold.
